Reference: patent US20250092154A1 (UCI THERAPEUTICS, published 2025)
Each block holds one binder with its values, some of them ahead of it.

How the values were obtained:
[1] = target: T1, recombinant human mature MSLN (SEQ ID NO: 1) (human, UniProt Q13421 296-598); assay: SPR, mature MSLN immobilized on CM5 chip, #19-1 scFv-Fc injected in two-fold dilutions, 1:1 depletion corrected binding model
T1 construct: Immobilized by amide coupling on a CM5 chip for SPR; also called mesothelin; recombinant human mesothelin protein antigen
T1 sequence (Q13421 other isoform, or with tags, fused parts or gaps limits assumed): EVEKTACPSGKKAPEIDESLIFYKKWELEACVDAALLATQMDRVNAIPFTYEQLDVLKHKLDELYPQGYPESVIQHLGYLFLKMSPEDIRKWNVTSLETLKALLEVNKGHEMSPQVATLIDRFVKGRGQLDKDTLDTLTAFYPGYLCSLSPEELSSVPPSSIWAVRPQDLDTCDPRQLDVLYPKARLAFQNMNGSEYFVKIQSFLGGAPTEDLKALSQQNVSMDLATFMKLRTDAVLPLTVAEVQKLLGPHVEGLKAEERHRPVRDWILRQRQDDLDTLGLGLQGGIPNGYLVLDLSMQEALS
Protocol: The binding affinity of the humanized antibody #19-1 purified in Example 6 to mesothelin was evaluated by surface plasmon resonance (SPR) method. First, recombinant human mature MSLN (SEQ ID NO: 1) was immobilized by an amide bond on the surface of a carboxymethyldextran (CM5) chip at densities of about 560 RU and 520 RU. Next, two-fold serial dilutions of humanized antibody #19-1 were injected at a constant flow rate. The association and dissociation rates of the protein complex (complex of humanized antibody #19-1 and mature MSLN) were monitored for 180 and 540 seconds, respectively. Referencing was performed on a blank flow cell. Finally, the binding affinity of humanized antibody #19-1 to mesothelin was determined using the 1:1 depletion corrected binding model.

[2] = target: T2, biotinylated mesothelin of SEQ ID NO: 1 (human, UniProt Q13421 296-598, biotinylated (site not stated)); assay: FACS of 293T cells transduced with the #19-1 CAR, biotinylated mature mesothelin plus PE-streptavidin (B4-A vs SSC-A)
T2 construct: also called biotinylated mature form of the mesothelin antigen
Protocol: The generated cells were cultured for 2 days. […] Then, biotin was fluorescently labeled using PE-conjugated streptavidin protein and FACS analysis was performed.

MSLN (ACRO) = target: T3, MSLN (ACRO) (human, UniProt Q13421, PE-conjugated (site not given)); assay: FACS of PBNK cells transduced with the #19-1 CAR, stained with PE-conjugated MSLN antigen 'MSLN (ACRO)' (B4-A vs SSC-A); also printed as 26%; Mock (empty vector) cells 0.24
T3 construct: soluble antigen, PE-conjugated; also called PE-conjugated MSLN antigen
T3 sequence (Q13421 other isoform, or with tags, fused parts or gaps limits assumed): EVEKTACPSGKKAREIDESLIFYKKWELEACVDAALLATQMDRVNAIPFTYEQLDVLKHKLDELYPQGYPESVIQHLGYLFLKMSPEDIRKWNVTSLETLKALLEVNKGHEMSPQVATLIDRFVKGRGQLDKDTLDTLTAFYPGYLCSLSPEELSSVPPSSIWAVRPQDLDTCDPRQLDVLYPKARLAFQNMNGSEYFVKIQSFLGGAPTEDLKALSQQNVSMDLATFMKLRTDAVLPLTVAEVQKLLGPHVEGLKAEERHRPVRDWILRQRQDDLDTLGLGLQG
Text: A mesothelin-specific chimeric antigen receptor construct virus was produced in the same manner as in Example 8 above, and then natural killer cells were used as immune 5 effector cells to be genetically engineered to express the chimeric antigen receptor. As such natural killer cells, PBMC (Human PB MNC) cells were purchased from StemCell, cultured for 10 days, and used after differentiation into PBNK cells. PBMC and PBNK cells, as well as lentivirus-transduced PBNK cells described below, were all cultured in NK MACS medium containing 100 µg/mL of streptomycin, 100 units/mL of penicillin, 10 ng/mL of rhIL-15, and 500 IU of rhIL-2. Culture of all cells was performed in a 5% CO₂ (95% air) environment at 37° C. For expression of the mesothelin-specific CAR, 5×10⁵ PBNK cells and the produced antigen receptor construct virus with an MOI of 2 were added to a 24-well plate, and then for induction of transduction, PGE2 (prostaglandin E2) and LentiBOOST (lentiviral gene transfer inducer) were used, thereby generating NK cells expressing the mesothelin-specific CAR. […]

MSLN mature form-his [3] = target: T4, MSLN mature form-his (human, UniProt Q13421 296-598, biotinylated (site not stated) in the ELISA of Example 2; detected with SA-APC in the yeast single-clone FACS); assay: Direct-binding ELISA: scFv coated on the plate, biotinylated MSLN mature form-his titrated, streptavidin-HRP, A450; the half-maximal value is headed 'IC50 (M)' in the drawn table, row 'Mature MSLN'
T4 construct: also called mesothelin mature form-his antigen; biotinylated MSLN-his; not shown: His tag
Protocol: (§1) 100 ng of the scFv protein purified in Example 1 was added to each well of a plate and refrigerated for 15 hours, thereby coating the plate with the protein. After incubation, each well was blocked with 200 μL of PBS (3% BSA) for 1 hour at room temperature. Biotinylated MSLN-his protein was serially diluted 1/5 from 10⁻⁶ M and then bound to the anti-MSLN scFv, coated on the ELISA plate, for 1 hour at room temperature. Each well was washed three times with PBST (0.05% tween 20) wash buffer, and then treated with HRP-conjugated streptavidin (Abcam) (diluted 40,000:1) for detection of biotinylated […] and incubated at room temperature for 1 hour. Each well was washed three times with PBST (0.05% tween20) wash buffer, and then treated with TMB and incubated at room temperature for 20 minutes. After treatment with 2M H₂SO₄, the absorbance at 450 nm was measured.

MSLN mature form-his [4] = target: T4, MSLN mature form-his; assay: Direct-binding ELISA: scFv coated on the plate, biotinylated MSLN mature form-his titrated (M), streptavidin-HRP, A450
Protocol: as §1

B1: humanized antibody #19-1 (#19-1 scFv-Fc) (Fc fusion)
scFv: EIVLTQSPATLSLSPGERATLSCSASSSVSYMHWYQQKPGQAPRLLIYDTSKLASGIPARFSGSGSGTDFTLTISSLEPEDFAVYYCQQWSSNPLTFGQGTKLEIKRGGGGSGGGGSGGGGSQVQLVQSGAEVKKPGASVKVSCKASGYTFTDYNMNWVRQAPGQGLEWMGVINPNYGTTSYNQKFKGRVTMTRDTSTSTVYMELSSLRSEDTAVYYCARGDYDGAGFAYWGQGTLVTVSS
notes: Expressed in ExpiCHO as #19-1 scFv-Fc and purified by protein A and SEC; also called humanized scFv #19-1; scFv antibody #19-1; not shown: Human IgG-Fc tag fused C-terminal to the scFv, and any hinge or linker to it
Kd [1]: 80.8 nM

B2: mesothelin-specific CAR comprising humanized scFv #19-1, on cells (293T cells; PBNK cells) (receptor)
chain: EIVLTQSPATLSLSPGERATLSCSASSSVSYMHWYQQKPGQAPRLLIYDTSKLASGIPARFSGSGSGTDFTLTISSLEPEDFAVYYCQQWSSNPLTFGQGTKLEIKRGGGGSGGGGSGGGGSQVQLVQSGAEVKKPGASVKVSCKASGYTFTDYNMNWVRQAPGQGLEWMGVINPNYGTTSYNQKFKGRVTMTRDTSTSTVYMELSSLRSEDTAVYYCARGDYDGAGFAYWGQGTLVTVSSTTTPAPRPPTPAPTIASQPLSLRPEACRPAAGGAVHTRGLDFACDIYIWAPLAGTCGVLLLSLVITLYCKRGRKKLLYIFKQPFMRPVQTTQEEDGCSCRFPEEEEGGCELRVKFSRSADAPAYKQGQNQLYNELNLGRREEYDVLDKRRGRDPEMGGKPRRKNPQEGLYNELQKDKMAEAYSEIGMKGERRRGKGHDGLYQGLSTATKDTYDALHMQALPPR
notes: also called #19-1 CAR; MSLN-CAR
% Parent in gate P4 (cells binding 'Mature MSLN') [2]: 54.8%
% Parent in gate P24 (MSLN (ACRO)): 25.6%

More lines, now with the values ahead:

IC50 (MSLN mature form-his [3]): 9.43 nM
EC50 (read off the curve) (MSLN mature form-his [4]): ~8 nM
B3: mesothelin-specific scFv #45 (purified from E. coli) (scFv)
scFv: DIVLTQSPAIMSTSPGEKVTMTCTASSSVSYMHWYQQKSGTSPKRWIYDTSKLASGVPARFSGSGSGTSYSLTISRMEAEDAATYYCQQWSSYPLTFGAGTKLEMKRGGGGSGGGGSGGGGSQVQLQQPGAELVKPGASVKLSCKASGYTFTSYWMHWVKQRPGQGLEWIGMIHPNSGGTNYNEKFKSKATLTVDKSSSTAYMQLSSLTSEDSAVYYCARYYYGNYVWYFDVWGTGTTVTVSA
notes: also called anti-MSLN scFv; not shown: His tag (Ni-NTA purification, anti-HISx6 detection) and any other pmopac12 vector tag

IC50 (MSLN mature form-his [3]): 2.43 nM
EC50 (read off the curve) (MSLN mature form-his [4]): ~3 nM
B4: mesothelin-specific scFv #19 (purified from E. coli) (scFv)
scFv: DIVITQSPAIMSASPGEKVTMTCSASSSVSYMHWYQQKSGTSPKRWIYDTSKLASGVPARFSGSGSGTSYSLTISSMEAEDAATYYCQQWSSNPLTFGAGTKLEIKRGGGGSGGGGSGGGGSQVQLQQSGPELVKPGASVKISCKASGYSFTDYNMNWVKQSNGKSLEWIGVINPNYGTTSYNQKFKGKATITADTSSNTAYLQLSSLTSEDSAVYYCAKGDYDGAGFAYWGQGTLVTVSA
notes: also called mouse scFv #19; anti-MSLN scFv; not shown: His tag (Ni-NTA purification, anti-HISx6 detection) and any other pmopac12 vector tag
